The values below come from article PMC5818060.

The target in experiment [1] is His-DDX3X^414-582 (human) (UniProt O00571). The experiment in a line: fluorescence thermal shift (FTS) assay; 10 µM His-DDX3X^414-582, 20 µM peptide, 50 mM HEPES pH 8, 10x SYPRO-Orange; change of melting temperature.
For experiment [2] the target is unchanged. In words: fluorescence thermal shift (FTS) assay; FTS with varying concentrations of peptide; melting temperatures fitted to single site or simple cooperative ligand binding, preferred model chosen.

Chain of His-DDX3X^414-582 (human) (O00571 414-582): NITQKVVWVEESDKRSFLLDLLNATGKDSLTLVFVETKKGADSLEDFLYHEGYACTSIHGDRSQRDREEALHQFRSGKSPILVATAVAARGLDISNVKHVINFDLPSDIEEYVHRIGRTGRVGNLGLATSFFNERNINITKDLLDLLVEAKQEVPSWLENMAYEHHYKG

Take “CK1δ-derived peptide δ-41 (from UniProt P48730 41-55)”: the increase of the melting temperature (Tm) of His-DDX3X^414-582 in experiment [1] was 5 °C. In experiment [2], the Kd – broadly, the concentration at which binding is half-saturated – amounted to 5.49 µM.
